Experiments:
ZWINT^M1 [1] = target: T1, ZWINT^M1 (human, UniProt O95229 1-277); experiment: BLI; Kd1
ZWINT^M2 [2] = target: T2, ZWINT^M2 (human, UniProt O95229 1-277); experiment: BLI; Kd1
ZWINT^M1 [3] = target: T1, ZWINT^M1; experiment: BLI; Kd2 (second site)
ZWINT^M2 [4] = target: T2, ZWINT^M2; experiment: BLI; Kd2 (second site)
Mis12C^M5 (NSL1 I216A) = Mis12C^M5 (NSL1 I216A) (human, UniProt Q9H081 1-205; Q6P1K2 1-205; Q96IY1 1-281; Q9H410 1-356, I216A); experiment: ITC
Mis12C^M3 = Mis12C^M3 (human, UniProt Q9H081 1-205; Q6P1K2 1-205; Q96IY1 1-281; Q9H410 1-356); experiment: ITC
Mis12C^M4 = Mis12C^M4 (human, UniProt Q9H081 1-205; Q6P1K2 1-205; Q96IY1 1-281; Q9H410 1-356); experiment: ITC
Chain of Mis12C^M4 (Q9H081 whole entry, chain 1 of 4): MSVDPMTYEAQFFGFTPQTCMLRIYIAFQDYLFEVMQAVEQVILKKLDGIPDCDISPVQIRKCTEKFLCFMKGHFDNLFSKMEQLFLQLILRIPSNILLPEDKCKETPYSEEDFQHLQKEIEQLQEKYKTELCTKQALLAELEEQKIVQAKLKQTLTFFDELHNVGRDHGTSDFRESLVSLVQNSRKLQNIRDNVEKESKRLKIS
Chain of Mis12C^M4 (Q6P1K2 whole entry, chain 2 of 4): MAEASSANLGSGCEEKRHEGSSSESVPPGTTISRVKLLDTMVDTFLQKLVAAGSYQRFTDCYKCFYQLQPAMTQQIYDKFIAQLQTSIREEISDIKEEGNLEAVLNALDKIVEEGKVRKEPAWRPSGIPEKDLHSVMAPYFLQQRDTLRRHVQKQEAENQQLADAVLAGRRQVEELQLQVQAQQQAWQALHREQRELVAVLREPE
Chain of Mis12C^M4 (Q96IY1 whole entry, chain 3 of 4): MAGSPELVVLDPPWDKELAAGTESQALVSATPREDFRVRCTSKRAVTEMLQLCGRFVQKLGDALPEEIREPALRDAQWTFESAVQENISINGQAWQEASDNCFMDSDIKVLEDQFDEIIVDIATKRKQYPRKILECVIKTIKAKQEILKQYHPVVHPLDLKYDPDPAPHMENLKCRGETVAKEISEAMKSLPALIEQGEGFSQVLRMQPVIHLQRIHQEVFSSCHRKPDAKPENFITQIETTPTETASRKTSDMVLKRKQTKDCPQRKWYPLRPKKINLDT
Chain of Mis12C^M4 (Q9H410 whole entry, chain 4 of 4): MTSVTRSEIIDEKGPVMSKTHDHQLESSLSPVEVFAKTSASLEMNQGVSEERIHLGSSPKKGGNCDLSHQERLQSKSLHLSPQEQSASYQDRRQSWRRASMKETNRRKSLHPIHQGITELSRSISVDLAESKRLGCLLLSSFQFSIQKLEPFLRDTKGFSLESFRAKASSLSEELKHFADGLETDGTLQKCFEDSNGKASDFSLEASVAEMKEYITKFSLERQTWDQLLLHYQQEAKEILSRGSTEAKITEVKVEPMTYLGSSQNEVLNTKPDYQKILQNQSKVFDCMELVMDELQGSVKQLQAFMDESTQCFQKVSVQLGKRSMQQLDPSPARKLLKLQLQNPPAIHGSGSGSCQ

Chain of Mis12C^M5 (NSL1 I216A) (Q9H081 whole entry, chain 1 of 4): as the sequence (Q9H081 whole entry, chain 1 of 4) above
Chain of Mis12C^M5 (NSL1 I216A) (Q6P1K2 whole entry, chain 2 of 4): as the sequence (Q6P1K2 whole entry, chain 2 of 4) above
Chain of Mis12C^M5 (NSL1 I216A) (Q96IY1 whole entry I216A, chain 3 of 4): as the sequence (Q96IY1 whole entry, chain 3 of 4) above, with I216A counted along it
Chain of Mis12C^M5 (NSL1 I216A) (Q9H410 whole entry, chain 4 of 4): as the sequence (Q9H410 whole entry, chain 4 of 4) above
Chain of Mis12C^M3 (Q9H081 whole entry, chain 1 of 4): as the sequence (Q9H081 whole entry, chain 1 of 4) above
Chain of Mis12C^M3 (Q6P1K2 whole entry, chain 2 of 4): as the sequence (Q6P1K2 whole entry, chain 2 of 4) above
Chain of Mis12C^M3 (Q96IY1 whole entry, chain 3 of 4): as the sequence (Q96IY1 whole entry, chain 3 of 4) above
Chain of Mis12C^M3 (Q9H410 whole entry, chain 4 of 4): as the sequence (Q9H410 whole entry, chain 4 of 4) above

Kd (ZWINT^M1 [1]) | Kd (ZWINT^M2 [2]) | Kd (ZWINT^M1 [3]) | Kd (ZWINT^M2 [4]) | Kd (Mis12C^M5 (NSL1 I216A)) | Kd (Mis12C^M3) | Kd (Mis12C^M4) | Binder
235 nM | 1170 nM | 25.1 nM | 250 nM |  |  |  | KNL1 (construct of the BLI titrations with ZWINT) (domain or fragment) GKLVQSAQNEREKLQIKIDEMDKILKKIDNCLTEMETETKNLEDEEKNNPVEEWDSEMRAAEKELEQLKTEEEELQRNLLELEVQKEQTLAQIDFMQKQRNRTEELLDQLSLSEWDVVEWSDDQAVFTFVYDTIQLTITFEESVVGFPFLDKRYRKIVDVNFQSLLDEDQAPPSSLLVHKLIFQYVEEKESWKKTCTTQHQLPKMLEEFSLVVHHCRLLGEEIEYLKRWGPNYNLMNIDINNNELRLLFSSSAAFAKFEITLFLSAYYPSVPLPSTIQNHVGNTSQDDIATILSKVPLENNYLKNVVKQIYQDLFQDCHFYH
 |  |  |  | 774 nM | 1170 nM | 451 nM | full-length SPC24/SPC25 (complex) chain 1: MAAFRDIEEVSQGLLSLLGANRAEAQQRRLLGRHEQVVERLLETQDGAEKQLREILTMEKEVAQSLLNAKEQVHQGGVELQQLEAGLQEAGEEDTRLKASLLQLTRELEELKEIEADLERQEKEVDEDTTVTIPSAVYVAQLYHQVSKIEWDYECEPGMVKGIHHGPSVAQPIHLDSTQLSRKFISDYLWSLVDTEW chain 2: MVEDELALFDKSINEFWNKFKSTDTSCQMAGLRDTYKDSIKAFAEKLSVKLKEEERMVEMFLEYQNQISRQNKLIQEKKDNLLKLIAEVKGKKQELEVLTANIQDLKEEYSRKKETISTANKANAERLKRLQKSADLYKDRLGLEIRKIYGEKLQFIFTNIDPKNPESPFMFSLHLNEARDYEVSDSAPHLEGLAEFQENVRKTNNFSAFLANVRKAFTATVYN
